Patent US20110178027A1 (SOCIETE DE COMMERCIALISATION DES PRODUITS DE LA RECHERCHE …, published 2011)
“And” between values parts separate entries of the source, which are not always exact repeats. Equal entries are not always repeated. No end group written: not given here.

How the values were obtained:
[1] = target: T1, PC1/3 (UniProt P29120 111-753, limits assumed); assay: enzyme inhibition assay, fluorogenic substrate PyrRTKR-MCA
T1 sequence (looked up): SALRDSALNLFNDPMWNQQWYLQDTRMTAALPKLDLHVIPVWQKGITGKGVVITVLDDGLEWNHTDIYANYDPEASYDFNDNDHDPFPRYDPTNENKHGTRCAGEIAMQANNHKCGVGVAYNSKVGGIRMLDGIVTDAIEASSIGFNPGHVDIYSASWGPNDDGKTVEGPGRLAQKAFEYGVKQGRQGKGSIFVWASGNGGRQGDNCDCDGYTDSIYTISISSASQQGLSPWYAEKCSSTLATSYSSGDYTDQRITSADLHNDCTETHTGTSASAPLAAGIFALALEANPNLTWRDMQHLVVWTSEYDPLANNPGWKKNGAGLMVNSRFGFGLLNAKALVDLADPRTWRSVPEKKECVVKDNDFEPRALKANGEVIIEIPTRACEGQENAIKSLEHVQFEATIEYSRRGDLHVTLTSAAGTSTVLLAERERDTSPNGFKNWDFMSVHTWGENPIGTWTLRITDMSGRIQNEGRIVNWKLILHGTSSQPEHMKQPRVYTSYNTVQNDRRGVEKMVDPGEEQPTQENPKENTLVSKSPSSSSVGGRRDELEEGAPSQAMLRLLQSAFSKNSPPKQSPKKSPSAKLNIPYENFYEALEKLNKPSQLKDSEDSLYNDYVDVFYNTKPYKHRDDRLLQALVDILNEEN
Method: (§1) Enzyme inhibition assays for furin (FIG. 5D) were performed in 100 mM Hepes pH 7.5, 1 mM CaCl₂, 1 mM β-mercaptoethanol, 0.5 μg/μL BSA. Assays for PC2 (FIG. 5E) were performed in 20 mM Bis-Tris pH 5.7, 1 mM CaCl₂, 0.1% Brij-30. Assays for PC1/3, PC4, PACE4, PC5/6 and PC7 (FIGS. 5F, G, A, B and C respectively) were performed in 20 mM Bis-T is pH 6.5, 1 mM CaCl₂. […] Inhibitory peptides were added to the enzymes at decreasing concentrations from 100 μM to 50 nM and incubated 5 minutes prior to the addition of substrate. […] Each Kᵢ value is the mean of 2 to 10 independent experiments.

[2] = target: T2, PC2 (UniProt P16519 110-638, limits assumed); assay: as above
T2 sequence (looked up): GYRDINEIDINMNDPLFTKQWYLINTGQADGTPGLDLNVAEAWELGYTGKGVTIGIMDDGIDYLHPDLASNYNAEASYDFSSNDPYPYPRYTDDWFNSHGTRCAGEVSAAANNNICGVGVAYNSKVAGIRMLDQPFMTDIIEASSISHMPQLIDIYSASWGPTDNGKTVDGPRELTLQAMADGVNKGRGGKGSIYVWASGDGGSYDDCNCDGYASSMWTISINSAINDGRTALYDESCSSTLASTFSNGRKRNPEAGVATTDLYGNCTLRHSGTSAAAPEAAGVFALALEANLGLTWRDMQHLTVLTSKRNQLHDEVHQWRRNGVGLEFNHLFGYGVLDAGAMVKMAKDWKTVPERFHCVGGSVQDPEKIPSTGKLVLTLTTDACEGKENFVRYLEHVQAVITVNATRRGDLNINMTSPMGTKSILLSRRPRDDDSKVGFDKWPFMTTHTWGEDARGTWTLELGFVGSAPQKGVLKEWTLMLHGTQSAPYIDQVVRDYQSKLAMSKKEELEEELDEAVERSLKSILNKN
Method: as §1

[3] = target: T3, PC4 (UniProt Q6UW60 114-708, limits assumed); assay: as above
T3 sequence (looked up): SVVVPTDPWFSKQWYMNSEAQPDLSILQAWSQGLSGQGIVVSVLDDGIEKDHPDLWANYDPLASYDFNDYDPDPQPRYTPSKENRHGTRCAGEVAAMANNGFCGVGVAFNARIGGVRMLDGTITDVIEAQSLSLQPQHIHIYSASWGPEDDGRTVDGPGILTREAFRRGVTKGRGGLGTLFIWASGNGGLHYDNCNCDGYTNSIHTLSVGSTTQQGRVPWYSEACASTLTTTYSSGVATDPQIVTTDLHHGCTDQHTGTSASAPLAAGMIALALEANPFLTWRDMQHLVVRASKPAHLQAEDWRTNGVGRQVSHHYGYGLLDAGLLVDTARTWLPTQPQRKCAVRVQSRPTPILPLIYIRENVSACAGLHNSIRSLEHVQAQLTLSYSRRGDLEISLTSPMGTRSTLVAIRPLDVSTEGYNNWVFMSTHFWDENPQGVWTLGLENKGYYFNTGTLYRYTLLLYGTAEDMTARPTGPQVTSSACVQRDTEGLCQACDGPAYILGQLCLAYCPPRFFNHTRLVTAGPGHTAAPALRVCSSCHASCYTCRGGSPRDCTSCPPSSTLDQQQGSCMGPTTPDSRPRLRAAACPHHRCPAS
Method: as §1

[4] = target: T4, PC5/6 (UniProt Q92824-2 115-913, limits assumed); assay: as above
T4 sequence (looked up): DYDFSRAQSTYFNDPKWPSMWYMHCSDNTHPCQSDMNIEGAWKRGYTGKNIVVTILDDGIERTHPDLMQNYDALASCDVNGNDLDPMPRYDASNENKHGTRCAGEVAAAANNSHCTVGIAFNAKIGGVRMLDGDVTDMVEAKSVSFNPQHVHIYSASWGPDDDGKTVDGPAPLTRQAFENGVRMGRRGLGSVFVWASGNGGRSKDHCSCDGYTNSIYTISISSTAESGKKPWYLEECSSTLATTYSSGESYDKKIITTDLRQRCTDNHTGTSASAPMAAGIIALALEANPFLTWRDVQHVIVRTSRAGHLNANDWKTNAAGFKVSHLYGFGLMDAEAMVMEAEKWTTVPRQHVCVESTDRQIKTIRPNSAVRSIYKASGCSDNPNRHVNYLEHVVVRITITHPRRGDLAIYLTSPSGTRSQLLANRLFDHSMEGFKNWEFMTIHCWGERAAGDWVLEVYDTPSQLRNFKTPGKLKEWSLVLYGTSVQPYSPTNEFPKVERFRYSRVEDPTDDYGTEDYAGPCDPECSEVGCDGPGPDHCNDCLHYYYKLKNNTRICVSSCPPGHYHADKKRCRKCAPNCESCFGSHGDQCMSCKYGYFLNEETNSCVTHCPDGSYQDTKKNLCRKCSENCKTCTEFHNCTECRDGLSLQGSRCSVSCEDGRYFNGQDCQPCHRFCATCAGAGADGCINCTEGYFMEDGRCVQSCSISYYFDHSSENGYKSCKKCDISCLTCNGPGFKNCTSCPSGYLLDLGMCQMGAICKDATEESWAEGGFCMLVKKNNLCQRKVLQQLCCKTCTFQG
Method: as §1

[5] = target: T5, PC7 (UniProt Q16549 142-667, limits assumed); assay: as above
T5 sequence (looked up): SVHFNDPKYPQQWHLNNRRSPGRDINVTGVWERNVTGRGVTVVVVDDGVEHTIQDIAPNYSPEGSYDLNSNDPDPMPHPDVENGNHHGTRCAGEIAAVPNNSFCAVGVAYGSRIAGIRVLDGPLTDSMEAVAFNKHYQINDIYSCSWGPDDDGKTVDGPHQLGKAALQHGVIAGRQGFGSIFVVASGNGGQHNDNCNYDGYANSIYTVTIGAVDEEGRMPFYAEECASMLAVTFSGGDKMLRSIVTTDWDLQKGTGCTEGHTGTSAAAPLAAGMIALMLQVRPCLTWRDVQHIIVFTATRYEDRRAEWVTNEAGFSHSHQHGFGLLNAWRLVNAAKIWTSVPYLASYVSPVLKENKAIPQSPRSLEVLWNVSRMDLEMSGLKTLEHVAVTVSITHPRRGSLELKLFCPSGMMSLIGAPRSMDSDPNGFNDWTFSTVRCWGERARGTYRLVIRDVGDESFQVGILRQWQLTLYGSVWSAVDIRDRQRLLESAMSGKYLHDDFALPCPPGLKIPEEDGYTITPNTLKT
Method: as §1

[6] = target: T6, PACE4 (UniProt P29122 150-969, limits assumed); assay: as above
T6 sequence (looked up): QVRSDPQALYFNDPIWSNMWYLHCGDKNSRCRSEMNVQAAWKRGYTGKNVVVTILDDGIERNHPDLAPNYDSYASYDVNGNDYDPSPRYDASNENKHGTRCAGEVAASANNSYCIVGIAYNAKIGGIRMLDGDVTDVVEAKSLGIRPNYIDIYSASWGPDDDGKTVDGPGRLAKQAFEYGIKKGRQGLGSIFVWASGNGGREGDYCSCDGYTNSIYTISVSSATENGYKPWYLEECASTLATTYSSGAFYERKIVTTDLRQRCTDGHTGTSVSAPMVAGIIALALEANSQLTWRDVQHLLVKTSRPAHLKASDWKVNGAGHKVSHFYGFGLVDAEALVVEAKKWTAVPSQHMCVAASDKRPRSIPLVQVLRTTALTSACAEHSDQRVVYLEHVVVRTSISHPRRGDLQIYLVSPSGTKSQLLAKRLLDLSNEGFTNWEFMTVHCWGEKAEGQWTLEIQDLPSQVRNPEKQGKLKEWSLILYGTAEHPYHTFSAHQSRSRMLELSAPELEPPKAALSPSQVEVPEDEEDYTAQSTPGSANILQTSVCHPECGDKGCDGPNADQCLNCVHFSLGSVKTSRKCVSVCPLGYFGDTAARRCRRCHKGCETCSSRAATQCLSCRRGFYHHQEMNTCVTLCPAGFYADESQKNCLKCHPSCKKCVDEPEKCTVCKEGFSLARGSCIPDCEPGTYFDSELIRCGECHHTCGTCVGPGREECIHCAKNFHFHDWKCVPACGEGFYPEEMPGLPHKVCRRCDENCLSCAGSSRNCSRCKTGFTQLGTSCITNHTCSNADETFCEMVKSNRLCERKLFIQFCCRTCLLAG
Method: as §1

[7] = target: furin (UniProt P09958 108-715, limits assumed); assay: as above
furin, sequence (P09958 108-715 limits assumed): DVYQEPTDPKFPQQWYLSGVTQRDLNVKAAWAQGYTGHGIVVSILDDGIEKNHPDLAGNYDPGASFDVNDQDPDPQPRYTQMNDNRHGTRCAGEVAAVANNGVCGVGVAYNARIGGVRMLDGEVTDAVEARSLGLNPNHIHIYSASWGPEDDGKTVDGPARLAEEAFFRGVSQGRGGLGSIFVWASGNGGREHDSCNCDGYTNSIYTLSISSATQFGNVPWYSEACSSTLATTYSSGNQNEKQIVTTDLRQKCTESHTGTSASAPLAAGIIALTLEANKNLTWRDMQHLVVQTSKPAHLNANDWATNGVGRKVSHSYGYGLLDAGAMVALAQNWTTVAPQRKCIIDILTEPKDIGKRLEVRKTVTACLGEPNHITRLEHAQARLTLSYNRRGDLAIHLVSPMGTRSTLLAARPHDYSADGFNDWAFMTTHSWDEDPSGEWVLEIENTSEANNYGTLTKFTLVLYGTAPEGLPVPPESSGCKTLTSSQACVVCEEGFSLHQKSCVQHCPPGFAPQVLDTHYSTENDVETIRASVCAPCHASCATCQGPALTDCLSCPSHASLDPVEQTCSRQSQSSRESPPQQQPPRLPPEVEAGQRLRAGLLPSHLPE
Method: as §1

[8] = target: T6, PACE4; assay: enzyme inhibition assay, ratio of Ki values against the other PCs
Method: as §1

With LLLLRVKR-NH2 (also called 4 Leu; Multi-Leu (ML)) [LLLLRVKR-NH2] the Ki [1] was 454 nM, the Ki [2] was 18800 nM and the Ki [3] was 205 nM. For the same binder, the Ki [4] was 245 nM, the Ki [5] was 54 nM and 50 nM and the Ki [6] was 6 nM and 5.5 nM and 5 nM. For the same binder, the Ki [7] was 114 nM and the “fold more effective on PACE4 than the other PCs” value [8] was ≥ 9 fold.

B1: LLLLLRVKR-NH2 (peptide)
peptide: LLLLLRVKR-NH2
notes: also called 5 Leu; multi-leucine peptide containing five leucines
Binder B1 has a Ki [3] of 164 nM.
